Results on one molecule are retold here after patent US7960513B2, “Antibody against a human ADAM protease” (Monash University, priority 2004, dated 2011).

This assay addresses T1, EphA3 (Homo sapiens, UniProt P29320).
T1 construct: expressed in transfected cells
T1 sequence (P29320 21-983): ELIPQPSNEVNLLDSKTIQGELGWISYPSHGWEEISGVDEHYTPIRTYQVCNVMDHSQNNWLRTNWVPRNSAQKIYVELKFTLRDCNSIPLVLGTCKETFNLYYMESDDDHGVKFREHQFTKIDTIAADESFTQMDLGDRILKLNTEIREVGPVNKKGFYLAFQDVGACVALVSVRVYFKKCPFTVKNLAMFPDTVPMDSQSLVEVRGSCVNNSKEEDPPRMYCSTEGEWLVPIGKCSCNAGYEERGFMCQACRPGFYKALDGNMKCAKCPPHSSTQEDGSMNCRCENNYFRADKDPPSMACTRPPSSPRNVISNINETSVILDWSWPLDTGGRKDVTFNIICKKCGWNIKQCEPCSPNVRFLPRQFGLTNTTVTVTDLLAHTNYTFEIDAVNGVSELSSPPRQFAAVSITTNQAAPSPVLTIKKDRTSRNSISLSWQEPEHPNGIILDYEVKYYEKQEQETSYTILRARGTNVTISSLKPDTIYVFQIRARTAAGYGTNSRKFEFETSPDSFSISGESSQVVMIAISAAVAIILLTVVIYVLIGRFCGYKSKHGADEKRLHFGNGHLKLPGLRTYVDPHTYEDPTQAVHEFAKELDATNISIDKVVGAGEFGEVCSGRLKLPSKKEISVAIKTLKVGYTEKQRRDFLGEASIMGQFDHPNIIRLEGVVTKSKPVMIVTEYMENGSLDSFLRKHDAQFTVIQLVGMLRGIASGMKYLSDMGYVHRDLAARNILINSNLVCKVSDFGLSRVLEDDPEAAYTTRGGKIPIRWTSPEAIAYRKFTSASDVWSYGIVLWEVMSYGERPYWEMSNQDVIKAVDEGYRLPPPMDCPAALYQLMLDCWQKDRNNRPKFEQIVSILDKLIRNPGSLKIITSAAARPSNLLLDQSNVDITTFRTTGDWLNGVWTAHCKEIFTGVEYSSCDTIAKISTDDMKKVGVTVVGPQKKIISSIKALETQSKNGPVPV
The assay can be described thus: Co-immunoprecipitation from transfected cells, Western blot. The following applies: EphA3/293 cells, EEE-A substituted construct. The class given is cell-based. As for the experimental part: FIG. 1. EphA3-ADAM10 association, ephrin-A5 cleavage and ephrin internalisation. • A. Association of ADAM10 with EphA3 in LiBr melanoma cells and parental or stably transfected EphA3/HEK293 cells. The cells were treated with clustered ephrin-Fc (A5 or A2) or were left untreated (−) prior to lysis. Anti-EphA3 immunoprecipitates from lysates were analysed by Western blot for endogenous ADAM10 (“p” and “m” indicate the pro (unprocessed) and mature (processed) forms of ADAM10). Aliquots from immunoprecipitates were blotted for EphA3 levels to indicate loading (lower panel). […] EphA3/HEK293 or ephrin-A5/HEK293 cells were transfected to express HA-tagged ADAM10ΔPM. Western Blots of anti-HA immuno-precipitates were analysed with antibodies against ephrin-A5 and EphA3, parallel control samples with anti-ADAM10 antibodies. Lysates of ephrin-A5/HEK 293 cells were also extracted with Protein-A Sepharose-bound EphA3 Fc and analysed with anti-ephrin-A5 antibodies. • C. […] Pooled cell lysates and supernatants were pre-cleared with excess Protein-A Sepharose, cleaved ephrin-A5 was extracted using EphA3-Fc coupled to Protein-A Sepharose and analysed by anti-ephrin-A5 immuno-blot. Recombinant, monomeric, single-chain ephrin-A5 (Himanen et al., 2004, Nat Neurosci. 7 501-9; ephrin std) was analysed in parallel. • D. Ephrin-A5 cleavage and internalisation are inhibited by dominant-negative ADAM10. […]
For orientation: Immunoblotting shows a protein as a band on a membrane.

B1: ADAM10Δpro: cell-surface ADAM10Δpro incorporating the EEE-A amino acid substitutions (protein)
chain: SGQPICGNGMVEQGEECDCGYSDQCKDDCCFDANQPEGKKCKLKPGKQCSPSQGPCCTAQCAFKSKSEKCRDDSDCAKEGICNGFTALCPASDPKPNFTDCNRHTQVCINGQCAGSICAKYDLAACTCASSDGKDDKELCHVCCMKKMAPSTCASTGSLQWSKQFSGRTITLQPGSPCNDFRGYCDVFMRCRLVDADGPLARLKKAIFSPQLYENIAEWIVAHWWAVLLMGIALIMLMAGFIKICSVHTPSSNPKLPPPKPLPGTLKRRRPPQPIQQPPRQRPRESYQMGHMRR
modifications: left off: small tags and cut ends
notes: cell-surface ADAM10Δpro incorporating the EEE-A amino acid substitutions
With B1, the “ephrin-independent constitutive association with EphA3” value was “remained unchanged”.
